According to the Human Domainome abundance scans (Beltran et al. 2025):

B1: Zinc finger homeobox protein 4, residues 2086 to 2141; numbered along this chain, Q86UP3 (parent)
chain: RPRTRITDDQLKILRAYFDINNSPSEEQIQEMAEKSGLSQKVIKHWFRNTLFKERQ
B2: REST corepressor 3, residues 87 to 134; numbered along this chain, Q9P2K3 (parent)
chain: DEWTVEDKVLFEQAFSFHGKSFHRIQQMLPDKTIASLVKYYYSWKKTR

Variants of: B1
Assay: abundance fitness (aPCA) (normalised: wild type 0, dead -1); higher = more abundant; growth selection in yeast, the domain comes from the species named
Details: Homo sapiens

Abundance fitness, by site and new letter:
K44: S -0.069, Q -0.362, H -0.042, V -0.186, T -0.017, G 0.001, P -0.716, W -0.312, M -0.098, C -0.204, E -0.031, D 0.068, R -0.01, F -0.023, N -0.042, Y 0.049, A 0.038, I -0.25, L -0.204
R48: P -0.444, D -0.09, Y -0.289, S -0.112, W -0.185, G -0.042, I -0.164, M -0.095, N 0.125, A -0.047, C -0.056, H 0.049, F -0.142, E -0.153, T 0.1, Q 0.056, V -0.111, L -0.04
Q56: M -0.12, L -0.214, V -0.568, N -0.083, E -0.77, R -0.024, H -0.363, A -0.646, T -0.07, W -0.492, C -0.802, K 0.295, G -0.439, S -0.502
L51: F -0.257, H -0.071, Y -0.098, M 0.005, R -0.092, G -0.134, W -0.163, T -0.065, D -0.047, A 0.007, S -0.1, I -0.237, V 0.04, N -0.12, Q 0.126, P -0.125, E -0.127, K -0.043
T50: F -0.182, G -0.079, D 0.102, R -0.032, C -0.213, E 0.051, N 0.007, Y -0.288, I -0.119, L -0.061, Q 0.035, M 0.065, W -0.109, S -0.053, K -0.016, A -0.013
R55: S -0.011, W -0.215, H 0.256, N -0.255, T -0.158, I -0.632, D -0.163, L -0.091, Y -0.431, G -0.038, P -0.118, M -0.198, E -0.059, A -0.025, C 0.016, F -0.125, Q -0.028, V -0.204
L38: P -0.982, M -0.011, R -0.746, S -0.545, Y -0.419, W -0.666, N -0.769, V -0.117, T -0.279, K -0.938, Q -0.349
F52: N 0.134, L -0.005, D -0.085, V 0.062, C 0.13, G 0.035, I 0.014, T 0.052, Y -0.02, A -0.029, K 0.068, H 0.018, R 0.184, W -0.174, S -0.067, Q 0.006, M -0.131
Q40: V -0.098, F 0.038, M 0.03, Y -0.157, E -0.253, H -0.172, R -0.062, P -0.114, D -0.232, W -0.11, I -0.091, C -0.1, N -0.217, K 0.082, G -0.173, T -0.188, A -0.14, S -0.115, L -0.003
E54: R -0.1, I -0.403, A -0.082, S -0.047, H -0.238, M -0.375, G -0.17, T -0.189, L -0.035, P -0.182, C -0.205, W -0.215, D -0.102, V -0.057, K -0.169, F -0.231, Q -0.206, N -0.149
K53: Q -0.072, H 0.023, D -0.041, T -0.042, S 0.016, V -0.157, P -0.285, W -0.131, I 0.141, N -0.023, Y -0.064, F -0.284, C -0.201, L 0.06, M -0.114, G -0.071
K41: W -0.123, H 0.033, L -0.174, P -0.307, S -0.141, T -0.093, A -0.136, G -0.042, E -0.043, F -0.02, V -0.124, C 0.032, N -0.393, Q -0.235, M -0.146, D 0.183, I -0.106
I43: Y -0.8, A -0.488, S -0.994, W -0.928, P -1.09, H -1.05, G -1.24, M -0.541, K -1.19, L -0.195, D -0.876, N -1.02, F -0.607, C -0.367, Q -1.02, E -0.946, V -0.073
S39: G -0.227, E 0.127, P -0.115, F -0.323, W -1.16, A -0.163, T -0.135, Y -0.14, L -0.767, M 0.217, C -0.395, R 0.007, K 0.081
F47: Y -0.096, S -0.287, Q -0.342, L -0.149, G -0.753, P -0.951, M -0.097, K -0.558, R -0.506, D -0.708, E -0.517, W -0.197, H -0.146, N -0.398, I -0.416, T -0.234, V -0.041, C -0.134
V42: S -0.059, I -0.057, Q -0.037, N -0.212, R 0.086, G -0.077, F 0.007, L -0.085, E 0.031, M -0.021, W -0.112, H -0.069, K -0.079, A 0.012, C -0.002, T -0.057, Y -0.065, D 0.093, P -0.478
N49: L -0.172, Y -0.169, Q -0.155, H 0.141, T 0.025, P -0.383, K 0.123, D 0.085, R -0.009, A -0.023, E 0.079, W -0.12, S -0.022, I 0.019
W46: I -0.331, V -0.221, Y 0.001, Q -0.483, L -0.239, E -0.141, F -0.237, P -0.698, S -0.406, D -0.297, N -0.762, R -0.516, A -0.313, T -0.203, M -0.376, G -0.655, K -0.737
H45: I -0.114, A -0.018, T 0, L -0.042, K 0.038, N -0.061, W 0.023, V -0.059, C -0.181, S -0.004, Y -0.034, M -0.059, P -0.207, R 0.08, D 0.006, E 0.09, F -0.082, Q -0.006, G -0.029

Variants of: B2
Assay: as above
Details: Homo sapiens

Abundance fitness of substitutions, site by site:
A35: H -0.214
V38: F -0.663, A -0.182
W44: L -0.329
A14: I -0.655
S16: A -0.077
L29: G -0.794
K39: P -0.86
T33: H -0.781
F17: R 0.137, W -0.61, Q -0.654, I -0.055
V9: I 0.032
F11: E -0.769
T47: Q -0.979
